The values that follow come from patent US20020155995A1 (published 2002).

The test has as its target T1, human CD163, ligand-affinity purified from Triton X-100 solubilised human spleen, placenta and liver membranes (human, UniProt Q86VB7 42-1156).
T1 construct: mature; Natural receptor purified from tissue membranes on Hp-Hb Sepharose; immobilised on BIAcore CM5 chips or in microtiter wells; also called HbSR; Hp-Hb receptor
Briefly: SPR, CD163 immobilised on CM5 chip. In general terms: SPR reads the build-up and loss of mass on a sensor chip optically.

T1 sequence (Q86VB7 42-1156): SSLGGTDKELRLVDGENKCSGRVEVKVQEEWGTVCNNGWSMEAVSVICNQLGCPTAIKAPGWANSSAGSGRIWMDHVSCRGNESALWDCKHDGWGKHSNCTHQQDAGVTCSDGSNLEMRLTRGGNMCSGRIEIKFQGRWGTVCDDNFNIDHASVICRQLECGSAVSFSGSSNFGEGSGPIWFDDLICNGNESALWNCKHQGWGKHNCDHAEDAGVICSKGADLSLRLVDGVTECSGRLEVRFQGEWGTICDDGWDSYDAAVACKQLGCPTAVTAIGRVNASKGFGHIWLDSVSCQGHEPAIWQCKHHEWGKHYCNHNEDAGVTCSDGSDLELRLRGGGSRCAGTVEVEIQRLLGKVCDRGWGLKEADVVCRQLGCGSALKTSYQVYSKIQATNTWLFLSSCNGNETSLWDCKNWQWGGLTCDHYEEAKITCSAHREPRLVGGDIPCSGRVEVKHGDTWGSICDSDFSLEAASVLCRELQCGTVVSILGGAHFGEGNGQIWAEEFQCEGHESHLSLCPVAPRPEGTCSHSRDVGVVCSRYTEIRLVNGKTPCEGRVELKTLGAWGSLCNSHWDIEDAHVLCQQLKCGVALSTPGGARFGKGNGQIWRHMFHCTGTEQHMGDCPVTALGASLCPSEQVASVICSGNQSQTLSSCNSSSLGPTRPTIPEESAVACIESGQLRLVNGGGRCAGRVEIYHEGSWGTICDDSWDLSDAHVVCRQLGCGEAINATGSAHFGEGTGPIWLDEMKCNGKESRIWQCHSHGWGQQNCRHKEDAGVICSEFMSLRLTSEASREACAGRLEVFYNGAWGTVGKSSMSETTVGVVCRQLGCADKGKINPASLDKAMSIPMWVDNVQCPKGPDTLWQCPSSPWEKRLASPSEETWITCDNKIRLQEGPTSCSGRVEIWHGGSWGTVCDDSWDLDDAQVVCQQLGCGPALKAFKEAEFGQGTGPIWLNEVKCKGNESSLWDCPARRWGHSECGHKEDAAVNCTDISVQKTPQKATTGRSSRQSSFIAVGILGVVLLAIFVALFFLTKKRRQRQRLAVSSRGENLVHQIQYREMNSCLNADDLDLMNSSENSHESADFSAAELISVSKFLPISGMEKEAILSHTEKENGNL
Method: Purified CD163 was immobilised at the BIAcore sensor CM5 chip (BIAcore AB) at a concentration of up to 50 μg/ml in 10 mM sodium acetate, pH 4.0, and the remaining binding sites were blocked with 1 M ethanolamine pH 8.5. The surface plasmon resonance signal generated from immobilised CD163 corresponded to 55-66 fmol receptor/mm². The sample and flow buffer was 10 mM Hepes, 150 mM NaCl, 0.5 mM CaCl₂, pH 7.4. The sensor chips were regenerated with 1.6 M glycine-HCl, pH 3.

B1: human haptoglobin Hp(2-2), non-complexed (other, UniProt P00738 19-406, looked up)
chain: VDSGNDVTDIADDGCPKPPEIAHGYVEHSVRYQCKNYYKLRTEGDGVYTLNDKKQWINKAVGDKLPECEADDGCPKPPEIAHGYVEHSVRYQCKNYYKLRTEGDGVYTLNNEKQWINKAVGDKLPECEAVCGKPKNPANPVQRILGGHLDAKGSFPWQAKMVSHHNLTTGATLINEQWLLTTAKNLFLNHSENATAKDIAPTLTLYVGKKQLVEIEKVVLHPNYSQVDIGLIKLKQKVSVNERVMPICLPSKDYAEVGRVGYVSGWGRNANFKFTDHLKYVMLPVADQDQCIRHYEGSTVPEKKTPKSPVGVQPILNEHTFCAGMSKYQEDTCYGDAGSAFAVHDLEEDTWYATGILSFDKSCAVAEYGVYVKVTSIQDWVQKTIAEN
notes: mature; From Sigma; mixture of multimers; also called Hp(2-2) multimers
With B1, the binding result is listed as “no binding (tested: 50 µg/ml Hp(2-2))”.
